Reference: patent US20170073416A1 (SPRING BIOSCIENCE, published 2017)
No end group written: not given here.

Experiments:
[1] = molecular target: T1, peptide immunogen (human B7-H3 aa 521-534), KHSDSKEDDGQEIA (human, not fully specified); assay: ELISA, antibody on immobilized peptide immunogen
T1 construct: also called immobilized peptide immunogen
T1 peptide: KHSDSKEDDGQEIA
Experimental: ELISA studies were performed with the SP265 antibody to evaluate binding to the immobilized peptide immunogen (human B7-H3 aa 521-534).

human B7-H3 = molecular target: T2, human B7-H3 (human, UniProt Q5ZPR3 29-534); assay: IHC on FFPE samples
T2 construct: whole, on cells; Endogenous protein detected in FFPE cells and tissues by IHC, and as a 110 kDa band in SDS-PAGE-fractionated cell lysates by Western blot; also called B7-H3 polypeptide
T2 sequence (looked up): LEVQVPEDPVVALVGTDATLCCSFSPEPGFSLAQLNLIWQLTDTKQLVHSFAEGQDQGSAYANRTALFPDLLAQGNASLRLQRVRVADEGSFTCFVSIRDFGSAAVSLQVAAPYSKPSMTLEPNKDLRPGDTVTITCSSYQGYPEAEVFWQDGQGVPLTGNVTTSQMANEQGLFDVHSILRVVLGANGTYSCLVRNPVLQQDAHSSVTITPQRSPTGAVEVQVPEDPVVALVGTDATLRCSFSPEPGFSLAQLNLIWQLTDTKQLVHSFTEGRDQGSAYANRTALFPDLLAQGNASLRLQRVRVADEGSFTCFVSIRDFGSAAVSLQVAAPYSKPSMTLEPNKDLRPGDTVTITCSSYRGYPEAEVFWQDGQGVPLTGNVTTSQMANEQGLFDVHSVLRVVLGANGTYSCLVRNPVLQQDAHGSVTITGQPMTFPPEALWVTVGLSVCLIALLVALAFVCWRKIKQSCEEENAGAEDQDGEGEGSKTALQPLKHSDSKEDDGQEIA
Experimental: Rabbit anti-human B7-H3 monoclonal antibodies SP265 and S10H50L58 were applied onto formalin-fixed paraffin embedded (FFPE) tissue samples to assess the staining patterns of these antibodies. Tissue samples include Hs700t (positive control), kidney (negative control) and renal cell carcinoma (positive control). IHC was performed on BenchMark Ultra (Ventana Medical Systems) using mild CC1 cell conditioning with OptiView detection kit.

EC50 [1]: 0.067 nM
binding result (human B7-H3): binds
B1: Rabbit anti-human B7-H3 monoclonal antibody SP265 (antibody, V domains shown)
VH: QSVEESRGGLIKPTDTLTLTCTVSGFSLGSYGVSWVRQAPGNGLEWIGGSGKRGNPYYASWAKSRSTITRNTNLNTVTLKMTSLTAADTATYFCASRAPVVSTSMTFNIWGPGTLVTVSS
VL: AQVPTQTPSPVSAAVGGTVTINCQASQSVYNNKNLSWYQQKPGQPPKLLIYEASTLASGVPSRFSGSGSGTQFALTISGVQCEDAATYYCQGEFTCSGADCGAFGGGTEVVVK
notes: also called SP265 anti-B7-H3 antibody; SP265 B7-H3 antibody
